B1: PZ model peptide P^+Z^+ (peptide)
peptide: ALVLDMMYGGMRGYQV
notes: also called PepP^+Z^+; source: synthetic peptide (GenScript USA Inc.)
B2: PZ model peptide P^−Z^+ (peptide)
peptide: ALELDMMYGGMRGYQV
notes: as P^+Z^+ but the P motif altered from ALV to ALE; source: synthetic peptide (GenScript USA Inc.)
B3: proteolytically inactive DegP_(S210A) (enzyme, Escherichia coli, UniProt P0C0V0 27-474, looked up)
chain: AETSSATTAQQMPSLAPMLEKVMPSVVSINVEGSTTVNTPRMPRNFQQFFGDDSPFCQEGSPFQSSPFCQGGQGGNGGGQQQKFMALGSGVIIDADKGYVVTNNHVVDNATVIKVQLSDGRKFDAKMVGKDPRSDIALIQIQNPKNLTAIKMADSDALRVGDYTVAIGNPFGLGETVTSGIVSALGRSGLNAENYENFIQTDAAINRGNAGGALVNLNGELIGINTAILAPDGGNIGIGFAIPSNMVKNLTSQMVEYGQVKRGELGIMGTELNSELAKAMKVDAQRGAFVSQVLPNSSAAKAGIKAGDVITSLNGKPISSFAALRAQVGTMPVGSKLTLGLLRDGKQVNVNLELQQSSQNQVDSSSIFNGIEGAEMSNKGKDQGVVVNNVKTGTPAAQIGLKKGDVIIGANQQAVKNIAELRKVLDSKPSVLALNIQRGDSTIYLLMQ
notes: Escherichia coli DegP (HtrA, protease Do), periplasmic protease and chaperone, with the active-site change S210A; Number of copies depends on the sample: hexamer alone, 12-mer or 24-mer with substrate; also called HtrA_(S210A); DegP6

Assays:
[1] = target: B3; experiment: SEC; DegP_(S210A) (94 µM) mixed with P^+Z^+ peptide (376 µM), 37°C 10 min; Superdex 200 in 50 mM HEPES pH 7.3, 150 mM NaCl at 4°C; settings: both partners purified
[2] = target: B3; experiment: SEC; DegP_(S210A) (94 µM) mixed with P^−Z^+ peptide (376 µM), 37°C 10 min; Superdex 200 in 50 mM HEPES pH 7.3, 150 mM NaCl at 4°C; settings: both partners purified
[3] = target: the molecule itself; experiment: SEC; DegP_(S210A) (42 µM) mixed with full-length β-casein (42 µM; also in molar excess), 37°C 10 min in 50 mM HEPES pH 7.3; Superdex 200 in 50 mM HEPES pH 7.3, 150 mM NaCl at 4°C; peak fractions on SDS-PAGE
[4] = target: the molecule itself; experiment: SEC; DegP_(S210A) mixed with MDH peptide fragments, 37°C 10 min; Superdex 200 in 50 mM HEPES pH 7.3, 150 mM NaCl at 4°C
[5] = target: the molecule itself; experiment: SEC; DegP_(S210A) alone (42 µM monomer), incubated in 50 mM HEPES pH 7.3 at 37°C for 10 min; Superdex 200 10/300 GL in 50 mM HEPES pH 7.3, 150 mM NaCl at 4°C

## B1
[1]
  binding result: binds

## B2
[2]
  binding result: binds

## B3
[3]
  stoichiometry N: 24
[4]
  stoichiometry N: 12
[5]
  stoichiometry N: 6

— publication PMC3081313, “Factors Defining the Functional Oligomeric State of Escherichia coli DegP Protease” (PLoS ONE, 2011)
